Numbering of substitutions follows the chain as printed.
T1: human GIP receptor (human) (UniProt P48546)
T1 sequence (looked up): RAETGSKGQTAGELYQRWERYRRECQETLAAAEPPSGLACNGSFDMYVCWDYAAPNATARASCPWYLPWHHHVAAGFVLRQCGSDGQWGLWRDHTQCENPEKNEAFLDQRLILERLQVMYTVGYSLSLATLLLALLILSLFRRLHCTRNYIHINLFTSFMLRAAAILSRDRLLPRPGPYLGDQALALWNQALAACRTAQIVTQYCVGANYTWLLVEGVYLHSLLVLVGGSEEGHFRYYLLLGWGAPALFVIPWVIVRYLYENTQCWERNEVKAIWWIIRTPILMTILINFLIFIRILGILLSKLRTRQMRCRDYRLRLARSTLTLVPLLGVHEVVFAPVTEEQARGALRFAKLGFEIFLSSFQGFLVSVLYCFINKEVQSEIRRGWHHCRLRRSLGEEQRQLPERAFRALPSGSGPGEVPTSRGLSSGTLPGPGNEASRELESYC

B1: Example 704 (peptide)
chain: YXQGTXTSDXXIXLDXKAAXEFIEXLIEGGPSSGAPPPSGSEE
modifications: synthetic construct; SITE 2: note = 2-Aminoisobutyric Acid; SITE 6: note = alpha-methyl-2-fluoro-L-phenylalanine; SITE 10: note = 3-(4-Pyridyl)-L-alanine; SITE 11: note = alpha-methyl-L-serine; SITE 13: note = alpha-methyl-leucine; SITE 16: note = L-ornithine; SITE 17: note = Lysine is chemically mo
B2: Example 726 (peptide)
chain: B1 chain with S41T, E43X
modifications: synthetic construct; SITE 2: note = 2-Aminoisobutyric Acid; SITE 6: note = alpha-methyl-2-fluoro-L-phenylalanine; SITE 10: note = 3-(4-Pyridyl)-L-alanine; SITE 11: note = alpha-methyl-L-serine; SITE 13: note = alpha-methyl-leucine; SITE 16: note = L-ornithine; SITE 17: note = Lysine is chemically mo
B3: Example 705 (peptide)
chain: B1 chain with S41E
modifications: synthetic construct; SITE 2: note = 2-Aminoisobutyric Acid; SITE 6: note = alpha-methyl-2-fluoro-L-phenylalanine; SITE 10: note = 3-(4-Pyridyl)-L-alanine; SITE 11: note = alpha-methyl-L-serine; SITE 13: note = alpha-methyl-leucine; SITE 16: note = L-ornithine; SITE 17: note = Lysine is chemically mo
B4: Example 697 (peptide)
chain: YXQGTXTSDXXIXLDXKAQXXFIEXLIEGGPSSGEPPPEGTGE
modifications: synthetic construct; SITE 2: note = 2-Aminoisobutyric Acid; SITE 6: note = alpha-methyl-2-fluoro-L-phenylalanine; SITE 10: note = 3-(4-Pyridyl)-L-alanine; SITE 11: note = alpha-methyl-L-serine; SITE 13: note = alpha-methyl-leucine; SITE 16: note = L-ornithine; SITE 17: note = Lysine is chemically mo
B5: Example 746 (peptide)
chain: B1 chain with A35E, S41G, E42G
modifications: synthetic construct; SITE 2: note = 2-Aminoisobutyric Acid; SITE 6: note = alpha-methyl-2-fluoro-L-phenylalanine; SITE 10: note = 3-(4-Pyridyl)-L-alanine; SITE 11: note = alpha-methyl-L-serine; SITE 13: note = alpha-methyl-leucine; SITE 16: note = L-ornithine; SITE 17: note = Lysine is chemically mo
B6: Example 724 (peptide)
chain: B1 chain with S41T, E42G, E43X
modifications: synthetic construct; SITE 2: note = 2-Aminoisobutyric Acid; SITE 6: note = alpha-methyl-2-fluoro-L-phenylalanine; SITE 10: note = 3-(4-Pyridyl)-L-alanine; SITE 11: note = alpha-methyl-L-serine; SITE 13: note = alpha-methyl-leucine; SITE 16: note = L-ornithine; SITE 17: note = Lysine is chemically mo
B7: Example 745 (peptide)
chain: B1 chain with S41G, E42G
modifications: synthetic construct; SITE 2: note = 2-Aminoisobutyric Acid; SITE 6: note = alpha-methyl-2-fluoro-L-phenylalanine; SITE 10: note = 3-(4-Pyridyl)-L-alanine; SITE 11: note = alpha-methyl-L-serine; SITE 13: note = alpha-methyl-leucine; SITE 16: note = L-ornithine; SITE 17: note = Lysine is chemically mo
B8: Example 725 (peptide)
chain: B1 chain with S41T
modifications: synthetic construct; SITE 2: note = 2-Aminoisobutyric Acid; SITE 6: note = alpha-methyl-2-fluoro-L-phenylalanine; SITE 10: note = 3-(4-Pyridyl)-L-alanine; SITE 11: note = alpha-methyl-L-serine; SITE 13: note = alpha-methyl-leucine; SITE 16: note = L-ornithine; SITE 17: note = Lysine is chemically mo
B9: Example 63 (peptide)
chain: YXQGTFTSDFSXXLDKKAQXAFIEYLLEGGPSSGAPPPGGE
modifications: synthetic construct; SITE 2: note = 2-Aminoisobutyric Acid; SITE 12: note = L-ornithine; SITE 13: note = alpha-methyl-leucine; SITE 17: note = Lysine is chemically modified through conjugation of the epsilon-amino group of the Lysine side chain with (2-[2-(2-Amino-ethoxy)-ethoxy]-acetyl)-(gamma-Glu)
B10: Example 672 (peptide)
chain: YXQGTXTSDXXIXLDXKAAXEFIEXLLEGGPSSGAPPPSGS
modifications: synthetic construct; SITE 2: note = 2-Aminoisobutyric Acid; SITE 6: note = alpha-methyl-2-fluoro-L-phenylalanine; SITE 10: note = 3-(4-Pyridyl)-L-alanine; SITE 11: note = alpha-methyl-L-serine; SITE 13: note = alpha-methyl-leucine; SITE 16: note = L-ornithine; SITE 17: note = Lysine is chemically mo
B11: Example 707 (peptide)
chain: B10 chain with L27I, A35E
modifications: synthetic construct; SITE 2: note = 2-Aminoisobutyric Acid; SITE 6: note = alpha-methyl-2-fluoro-L-phenylalanine; SITE 10: note = 3-(4-Pyridyl)-L-alanine; SITE 11: note = alpha-methyl-L-serine; SITE 13: note = alpha-methyl-leucine; SITE 16: note = L-ornithine; SITE 17: note = Lysine is chemically mo

The binders below were run against hGLP-1R (Homo sapiens, UniProt P43220) (assay: cell-based or functional assay).
Chain of hGLP-1R (P43220 24-463): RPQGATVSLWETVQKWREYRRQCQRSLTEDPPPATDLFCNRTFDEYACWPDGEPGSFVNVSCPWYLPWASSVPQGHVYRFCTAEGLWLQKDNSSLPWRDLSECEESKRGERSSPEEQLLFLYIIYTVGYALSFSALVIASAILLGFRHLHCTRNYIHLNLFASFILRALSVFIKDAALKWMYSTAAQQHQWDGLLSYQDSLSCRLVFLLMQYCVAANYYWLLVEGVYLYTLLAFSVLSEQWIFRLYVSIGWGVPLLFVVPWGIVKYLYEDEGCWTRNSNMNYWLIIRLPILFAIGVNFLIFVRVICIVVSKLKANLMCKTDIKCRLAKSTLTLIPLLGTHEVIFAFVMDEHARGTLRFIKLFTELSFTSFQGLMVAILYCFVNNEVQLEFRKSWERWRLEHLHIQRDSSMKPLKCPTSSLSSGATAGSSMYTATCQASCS
B1 showed a Relative cAMP EC50 of 0.287 nM and a cAMP Rel EC50 (1% HSA) of 33.9 nM. B2 gave a Relative cAMP EC50 of 0.247 nM and a cAMP Rel EC50 (1% HSA) of 33.3 nM. B3 showed a Relative cAMP EC50 of 0.305 nM and a cAMP Rel EC50 (1% HSA) of 33.7 nM. Binder B4 has a Relative cAMP EC50 of 0.235 nM and a cAMP Rel EC50 (1% HSA) of 18.2 nM. With B5 the Relative cAMP EC50 was 0.261 nM and the cAMP Rel EC50 (1% HSA) was 38.6 nM. Work on B6 yielded a Relative cAMP EC50 of 0.256 nM and a cAMP Rel EC50 (1% HSA) of 26.4 nM. In the case of B7, the Relative cAMP EC50 is reported as 0.212 nM and the cAMP Rel EC50 (1% HSA) is reported as 29 nM. B8 gave a Relative cAMP EC50 of 0.258 nM and a cAMP Rel EC50 (1% HSA) of 29.1 nM. For B9, the Relative cAMP EC50 was 4.78 nM and the cAMP Rel EC50, nM (in the presence of 1% HSA) was 348 nM. B10 gave a cAMP Rel EC50 (1% HSA) of 49.4 nM. Binder B11 has a Relative cAMP EC50 of 0.248 nM and a cAMP Rel EC50 (1% HSA) of 30.6 nM.

The binders below were run against human glucagon receptor (human) (UniProt P47871) (assay: cell-based or functional assay).
Chain of human glucagon receptor (human) (P47871 26-477): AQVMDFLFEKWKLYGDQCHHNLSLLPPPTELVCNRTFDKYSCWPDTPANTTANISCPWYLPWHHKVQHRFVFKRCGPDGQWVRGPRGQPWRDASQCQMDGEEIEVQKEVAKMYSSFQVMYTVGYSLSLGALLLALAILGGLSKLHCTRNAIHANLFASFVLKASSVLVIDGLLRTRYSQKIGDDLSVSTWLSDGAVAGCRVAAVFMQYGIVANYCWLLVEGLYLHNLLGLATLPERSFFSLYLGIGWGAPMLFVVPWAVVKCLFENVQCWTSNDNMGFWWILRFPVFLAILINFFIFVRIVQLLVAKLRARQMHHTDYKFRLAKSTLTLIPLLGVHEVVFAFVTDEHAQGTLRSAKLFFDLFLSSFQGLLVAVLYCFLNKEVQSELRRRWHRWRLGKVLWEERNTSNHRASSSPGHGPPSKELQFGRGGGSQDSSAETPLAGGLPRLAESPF
B1 showed a Relative cAMP EC50 of 1.85 nM and a cAMP Rel EC50 (1% HSA) of 239 nM. B2 was tested, and the Relative cAMP EC50 was 1.71 nM and the cAMP Rel EC50 (1% HSA) was 226 nM. With B3 the Relative cAMP EC50 was 1.7 nM and the cAMP Rel EC50 (1% HSA) was 234 nM. Binder B4 has a Relative cAMP EC50 of 1.71 nM and a cAMP Rel EC50 (1% HSA) of 130 nM. B5 showed a Relative cAMP EC50 of 1.62 nM and a cAMP Rel EC50 (1% HSA) of 255 nM. Work on B6 yielded a Relative cAMP EC50 of 1.74 nM and a cAMP Rel EC50 (1% HSA) of 209 nM. With B7 the Relative cAMP EC50 was 1.86 nM and the cAMP Rel EC50 (1% HSA) was 266 nM. B8 showed a Relative cAMP EC50 of 1.49 nM and a cAMP Rel EC50 (1% HSA) of 244 nM. B9 was tested, and the Relative cAMP EC50 was 4.1 nM and the cAMP Rel EC50, nM (in the presence of 1% HSA) was 709 nM. Work on B10 yielded a cAMP Rel EC50 (1% HSA) of 162 nM. With B11 the Relative cAMP EC50 was 1.06 nM and the cAMP Rel EC50 (1% HSA) was 199 nM.

The binders below were run against T1, human GIP receptor (human) (assay: cell-based or functional assay).
For B1, the Relative cAMP EC50 was 0.013 nM and the cAMP Rel EC50 (1% HSA) was 1.2 nM. B2 showed a Relative cAMP EC50 of 0.013 nM and a cAMP Rel EC50 (1% HSA) of 1.22 nM. For B3, the Relative cAMP EC50 was 0.0128 nM and the cAMP Rel EC50 (1% HSA) was 1.15 nM. B4 was tested, and the Relative cAMP EC50 was 0.0109 nM and the cAMP Rel EC50 (1% HSA) was 0.607 nM. Work on B5 yielded a Relative cAMP EC50 of 0.0119 nM and a cAMP Rel EC50 (1% HSA) of 1.44 nM. For B6, the Relative cAMP EC50 was 0.0102 nM and the cAMP Rel EC50 (1% HSA) was 1.06 nM. B7 was tested, and the Relative cAMP EC50 was 0.012 nM and the cAMP Rel EC50 (1% HSA) was 1.36 nM. Work on B8 yielded a Relative cAMP EC50 of 0.0126 nM and a cAMP Rel EC50 (1% HSA) of 1.39 nM. B9 gave a Relative cAMP EC50 of 0.255 nM and a cAMP Rel EC50, nM (in the presence of 1% HSA) of 40.4 nM. In the case of B10, the cAMP Rel EC50 (1% HSA) is reported as 1.53 nM. In the case of B11, the Relative cAMP EC50 is reported as 0.0107 nM and the cAMP Rel EC50 (1% HSA) is reported as 1.05 nM.

From US20240270821A1, “GIP/GLP1/GCG TRI-RECEPTOR AGONISTS AND USES THEREOF” (priority 2023, published 2024)
